Experiment [1] has as its target c-Myc^1-331 labelled at the four N-terminal sites in the MB0–MBII region (fluorescence anisotropy). In words: fluorescence polarisation; steady-state fluorescence anisotropy of the A488 dye on c-Myc in the donor-only samples with unlabeled AurA, same plates as for the lifetime measurements; excitation 470 nm, emission 516 nm; fit to a 1:1 binding model. On the technique in general: Fluorescence polarisation rises when a labelled molecule tumbles more slowly, as on binding a larger partner.

Experiment [2] addresses c-Myc^1-88 labelled with A488 on C70, phosphorylated on T58 and S62 (UniProt P01106). The experiment is described as above.
Experiment [3] concerns the target c-Myc^1-331 labelled at the four N-terminal sites in the MB0–MBII region (FRET). The experiment can be described thus: FRET or BRET; time-resolved fluorescence lifetime plate reader; Alexa 488-labelled c-Myc constant at 50 nM, DABCYL-labelled AurA titrated 0-12.8 uM; 384-well plates, room temperature, at least 30 min.
The target of experiment [4] is c-Myc^1-331 single-cysteine construct C70, labelled with Alexa 488, phosphorylated on T58 and S62. Described as above.

What is called Kd is the constant that tells how readily two partners part at equilibrium. Read a low Kd as a tighter complex.

In experiment [1], “Aurora A kinase domain (AurA^122-403), unlabeled (from UniProt O14965 122-403) (domain or fragment)” gave a Kd of 2000 to 3000 nM. Besides, the fold enhancement of binding affinity over unphosphorylated c-Myc 1-88 in experiment [2] came out at 3 fold.

B1: Aurora A kinase domain (AurA^122-403), cysteine-lite, labelled with dabcyl acceptor (domain or fragment)
chain: ESKKRQWALEDFEIGRPLGKGKFGNVYLAREKQSKFILALKVLFKAQLEKAGVEHQLRREVEIQSHLRHPNILRLYGYFHDATRVYLILEYAPLGTVYRELQKCSKFDEQRTATYITELANALSYCHSKRVIHRDIKPENLLLGSAGELKIADFGWSVHAPSSRRTTLSGTLDYLPPEMIEGRMHDEKVDLWSLGVLCYEFLVGKPPFEANTYQETYKRISRVEFTFPDFVTEGARDLISRLLKHNPSQRPMLREVLEHPWITANSSKPSNSQNKESASKQS
modifications: DABCYL-Plus C2 maleimide on the cysteine introduced by L225C
In experiment [3], B1 registered a Kd of 2000 to 3000 nM. The fold enhancement of binding affinity over unphosphorylated c-Myc 1-331 in experiment [4] is 2 fold.

(Values after paper PMC12203944.)
